The source of these data is patent US20250136677A1 (ZOETIS SERVICES, published 2025).

The target of experiment [1] is T1, wildtype feline IL-31 protein (Feline_IL31_wildtype) (feline).
T1 chain: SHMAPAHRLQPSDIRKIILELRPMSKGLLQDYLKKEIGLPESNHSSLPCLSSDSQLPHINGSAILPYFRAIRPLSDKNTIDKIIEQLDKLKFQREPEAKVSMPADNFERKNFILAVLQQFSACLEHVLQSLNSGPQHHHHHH
The experiment can be described thus: cell-based or functional assay.

The target of experiment [2] is T1, wildtype feline IL-31 protein …. As to the kind of experiment: Biacore, feline IL-31 chip, mAb 100 nM, share of points within parent mean +/-3 SD. Also noted: key: % of mutant data points within parent mAb mean ±3 SD. The text has this:
The mean response unit of four replicates of the parent mAb+/−3 standard deviations was used to generate parameters to define a threshold of response units comprising both the on- and off-rates antibody binding (FIG. 22). The percentage of data points for each mutant fell within this threshold was then used to define a “% similarity score” (FIG. 23).
(In general: SPR reads the build-up and loss of mass on a sensor chip optically.)

In experiment [3] the target is T2, canine IL-31 protein (Canine_IL31) (canine).
T2 chain: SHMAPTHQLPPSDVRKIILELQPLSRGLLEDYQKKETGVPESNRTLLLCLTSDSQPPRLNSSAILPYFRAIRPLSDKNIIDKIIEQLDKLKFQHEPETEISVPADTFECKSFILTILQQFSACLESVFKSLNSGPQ
As to the kind of experiment: SPR (Biacore), IL-31 on chip, 1:1 fit.

For experiment [4], the target named is T1, wildtype feline IL-31 protein …. The experiment can be described thus: SPR (Biacore), IL-31 on chip, 1:1 fit. The protocol: The affinity with which candidate mAbs bind canine and feline IL-31 was determined using surface plasmon resonance (SPR) on a Biacore system (Biocore Life Sciences (GE Healthcare), Uppsala, Sweden). To avoid affinity differences associated with differential surface preparation that can occur when immobilizing antibodies to surfaces; a strategy was employed where IL-31 was directly conjugated to the surface. Immobilization was obtained by amine coupling 5 μg/mL IL-31 using N-hydroxysuccinimide (NHS)/1-Ethyl-3-(3-dimethylaminopropyl) carbodiimide (EDC) chemistry. Chips were quenched with ethanolamine and the affinity with which all candidate mAbs bound to the immobilized IL-31 was evaluated. All curves were fit to a 1:1 model. […] Results for affinity measurements are described herein.

The koff is a measure of how fast the partners let go of each other. In general, kon refers to the second-order rate constant of association. One may read the Kd as the constant that tells how readily two partners part at equilibrium.

B1: A30 (antibody, V domains shown)
VH: QVLLVQSGAEVRTPGASVKIFCKASGYSFASYTIHWLRQAPAQGLEWMGNINPTSGYTENNQRFKDRLTLTADTSTNTAYMELSSLRSADTAMYYCARWGFKYDGEWSFDVWGAGTTVTVSS
VL: EIQMTQSPSSLSASPGDRVTITCRASQGISIWLSWYQQKPGNIPKVLINKASNLHIGVPSRFSGSGSGTDFTLTISSLEPEDAATYYCLQSQTYPLTFGGGTKLEIK
As to B1, the “% Inhibition Relative to Parent (pSTAT, FCWF-4 cells)” value (“% Inhibition Relative to Parent” for short) in experiment [1] was 28.4%. For the same molecule, the “Binding Similarity score” value in experiment [2] is 79.

B2: Feline 15H05 1.3 (antibody, V domains shown)
VH: QVLLVQSGAEVRTPGASVKIFCKASGYSFTSYTIHWLRQAPAQGLEWMGNINPTSGYTENNQRFKDRLTLTADTSTNTAYMELSSLRSADTAMYYCARWGFKYDGEWSFDVWGAGTTVTVSS
VL: EVVLTQSSAFLSRTLKEKATITCRASQGISIWLSWYQQKPNQAPKLLVKKASNLHIGAPSRFSGSGSGTDFTLTISSPEPEDAATYYCLQSQTYPLTFGGGTKLGDQ
notes: Feline heavy and kappa constant regions
In experiment [3], B2 came in with a koff of 0.00019 s⁻¹ and a kon of 29700 M⁻¹ s⁻¹. For the same molecule, in experiment [4], the Kd turned out to be 86.4 nM, the koff was determined as 0.00328 s⁻¹ and the kon came to 38000 M⁻¹ s⁻¹.

B3: A47 (antibody, V domains shown)
VH: QVLLVQSGAEVRTPGASVKIFCKASGYSFTSYTIHWLRQAPAQGLEWMGNINPTSGYTANNQRFKDRLTLTADTSTNTAYMELSSLRSADTAMYYCARWGFKYDGEWSFDVWGAGTTVTVSS
VL: EIQMTQSPSSLSASPGDRVTITCRASQGISIWLSWYQQKPGNIPKVLINKASNLHIGVPSRFSGSGSGTDFTLTISSLEPEDAATYYCLQSQTYPLTFGGGTKLEIK
On to B3, for which the “% Inhibition Relative to Parent” value in experiment [1] came out at 18%. Moreover, in experiment [2], the “Binding Similarity score” value was determined as 100.

B4: A35 (antibody, V domains shown)
VH: QVLLVQSGAEVRTPGASVKIFCKASGYSFTSYTAHWLRQAPAQGLEWMGNINPTSGYTENNQRFKDRLTLTADTSTNTAYMELSSLRSADTAMYYCARWGFKYDGEWSFDVWGAGTTVTVSS
VL: EIQMTQSPSSLSASPGDRVTITCRASQGISIWLSWYQQKPGNIPKVLINKASNLHIGVPSRFSGSGSGTDFTLTISSLEPEDAATYYCLQSQTYPLTFGGGTKLEIK
With B4, the “% Inhibition Relative to Parent” value in experiment [1] was determined as 92.5%. Besides, the “Binding Similarity score” value in experiment [2] was determined as 97.5.

B5: A37 (antibody, V domains shown)
VH: QVLLVQSGAEVRTPGASVKIFCKASGYSFTSYTIHWLRQAPAQGLEWMGAINPTSGYTENNQRFKDRLTLTADTSTNTAYMELSSLRSADTAMYYCARWGFKYDGEWSFDVWGAGTTVTVSS
VL: EIQMTQSPSSLSASPGDRVTITCRASQGISIWLSWYQQKPGNIPKVLINKASNLHIGVPSRFSGSGSGTDFTLTISSLEPEDAATYYCLQSQTYPLTFGGGTKLEIK
B5: in experiment [1], the “% Inhibition Relative to Parent” value stood at 52.1%. Also, the “Binding Similarity score” value in experiment [2] is 46.1.

B6: A36 (antibody, V domains shown)
VH: QVLLVQSGAEVRTPGASVKIFCKASGYSFTSYTIAWLRQAPAQGLEWMGNINPTSGYTENNQRFKDRLTLTADTSTNTAYMELSSLRSADTAMYYCARWGFKYDGEWSFDVWGAGTTVTVSS
VL: EIQMTQSPSSLSASPGDRVTITCRASQGISIWLSWYQQKPGNIPKVLINKASNLHIGVPSRFSGSGSGTDFTLTISSLEPEDAATYYCLQSQTYPLTFGGGTKLEIK
For B6, in experiment [1], the “% Inhibition Relative to Parent” value was determined as 25.2%. The “Binding Similarity score” value in experiment [2] came out at 10.4.

B7: A38 (antibody, V domains shown)
VH: QVLLVQSGAEVRTPGASVKIFCKASGYSFTSYTIHWLRQAPAQGLEWMGNANPTSGYTENNQRFKDRLTLTADTSTNTAYMELSSLRSADTAMYYCARWGFKYDGEWSFDVWGAGTTVTVSS
VL: EIQMTQSPSSLSASPGDRVTITCRASQGISIWLSWYQQKPGNIPKVLINKASNLHIGVPSRFSGSGSGTDFTLTISSLEPEDAATYYCLQSQTYPLTFGGGTKLEIK
Turning to B7, in experiment [1], the “% Inhibition Relative to Parent” value was found to be 42.2%. Besides, the “Binding Similarity score” value in experiment [2] was 55.1.

B8: A34 (antibody, V domains shown)
VH: QVLLVQSGAEVRTPGASVKIFCKASGYSFTSYAIHWLRQAPAQGLEWMGNINPTSGYTENNQRFKDRLTLTADTSTNTAYMELSSLRSADTAMYYCARWGFKYDGEWSFDVWGAGTTVTVSS
VL: EIQMTQSPSSLSASPGDRVTITCRASQGISIWLSWYQQKPGNIPKVLINKASNLHIGVPSRFSGSGSGTDFTLTISSLEPEDAATYYCLQSQTYPLTFGGGTKLEIK
In the case of B8, the “% Inhibition Relative to Parent” value in experiment [1] stood at 0%. Moreover, in experiment [2], the “Binding Similarity score” value was found to be 3.37.

B9: A39 (antibody, V domains shown)
VH: QVLLVQSGAEVRTPGASVKIFCKASGYSFTSYTIHWLRQAPAQGLEWMGNIAPTSGYTENNQRFKDRLTLTADTSTNTAYMELSSLRSADTAMYYCARWGFKYDGEWSFDVWGAGTTVTVSS
VL: EIQMTQSPSSLSASPGDRVTITCRASQGISIWLSWYQQKPGNIPKVLINKASNLHIGVPSRFSGSGSGTDFTLTISSLEPEDAATYYCLQSQTYPLTFGGGTKLEIK
For the molecule B9, the “% Inhibition Relative to Parent” value in experiment [1] was found to be 25.1%. Further, the “Binding Similarity score” value in experiment [2] came out at 100.

B10: A40 (antibody, V domains shown)
VH: QVLLVQSGAEVRTPGASVKIFCKASGYSFTSYTIHWLRQAPAQGLEWMGNINATSGYTENNQRFKDRLTLTADTSTNTAYMELSSLRSADTAMYYCARWGFKYDGEWSFDVWGAGTTVTVSS
VL: EIQMTQSPSSLSASPGDRVTITCRASQGISIWLSWYQQKPGNIPKVLINKASNLHIGVPSRFSGSGSGTDFTLTISSLEPEDAATYYCLQSQTYPLTFGGGTKLEIK
For the molecule B10, the “% Inhibition Relative to Parent” value in experiment [1] amounted to 5.7%. Moreover, the “Binding Similarity score” value in experiment [2] amounted to 2.7.

B11: A43 (antibody, V domains shown)
VH: QVLLVQSGAEVRTPGASVKIFCKASGYSFTSYTIHWLRQAPAQGLEWMGNINPTAGYTENNQRFKDRLTLTADTSTNTAYMELSSLRSADTAMYYCARWGFKYDGEWSFDVWGAGTTVTVSS
VL: EIQMTQSPSSLSASPGDRVTITCRASQGISIWLSWYQQKPGNIPKVLINKASNLHIGVPSRFSGSGSGTDFTLTISSLEPEDAATYYCLQSQTYPLTFGGGTKLEIK
As to B11, in experiment [1], the “% Inhibition Relative to Parent” value turned out to be 47.4%. The “Binding Similarity score” value in experiment [2] came out at 100.

B12: A44 (antibody, V domains shown)
VH: QVLLVQSGAEVRTPGASVKIFCKASGYSFTSYTIHWLRQAPAQGLEWMGNINPTSAYTENNQRFKDRLTLTADTSTNTAYMELSSLRSADTAMYYCARWGFKYDGEWSFDVWGAGTTVTVSS
VL: EIQMTQSPSSLSASPGDRVTITCRASQGISIWLSWYQQKPGNIPKVLINKASNLHIGVPSRFSGSGSGTDFTLTISSLEPEDAATYYCLQSQTYPLTFGGGTKLEIK
Consider B12, for which the “% Inhibition Relative to Parent” value in experiment [1] worked out at 36.9%. For the same molecule, the “Binding Similarity score” value in experiment [2] came out at 55.8.

B13: A42 (antibody, V domains shown)
VH: QVLLVQSGAEVRTPGASVKIFCKASGYSFTSYTIHWLRQAPAQGLEWMGNINPASGYTENNQRFKDRLTLTADTSTNTAYMELSSLRSADTAMYYCARWGFKYDGEWSFDVWGAGTTVTVSS
VL: EIQMTQSPSSLSASPGDRVTITCRASQGISIWLSWYQQKPGNIPKVLINKASNLHIGVPSRFSGSGSGTDFTLTISSLEPEDAATYYCLQSQTYPLTFGGGTKLEIK
With B13, the “% Inhibition Relative to Parent” value in experiment [1] is 83.6%. Besides, the “Binding Similarity score” value in experiment [2] was 44.9.

B14: A32 (antibody, V domains shown)
VH: QVLLVQSGAEVRTPGASVKIFCKASGYSFTAYTIHWLRQAPAQGLEWMGNINPTSGYTENNQRFKDRLTLTADTSTNTAYMELSSLRSADTAMYYCARWGFKYDGEWSFDVWGAGTTVTVSS
VL: EIQMTQSPSSLSASPGDRVTITCRASQGISIWLSWYQQKPGNIPKVLINKASNLHIGVPSRFSGSGSGTDFTLTISSLEPEDAATYYCLQSQTYPLTFGGGTKLEIK
With B14, the “% Inhibition Relative to Parent” value in experiment [1] is 40.3%. In addition, the “Binding Similarity score” value in experiment [2] was determined as 39.2.

B15: A45 (antibody, V domains shown)
VH: QVLLVQSGAEVRTPGASVKIFCKASGYSFTSYTIHWLRQAPAQGLEWMGNINPTSGATENNQRFKDRLTLTADTSTNTAYMELSSLRSADTAMYYCARWGFKYDGEWSFDVWGAGTTVTVSS
VL: EIQMTQSPSSLSASPGDRVTITCRASQGISIWLSWYQQKPGNIPKVLINKASNLHIGVPSRFSGSGSGTDFTLTISSLEPEDAATYYCLQSQTYPLTFGGGTKLEIK
Take B15: in experiment [1], the “% Inhibition Relative to Parent” value came out at 22.8%. For the same molecule, in experiment [2], the “Binding Similarity score” value was 31.9.

B16: A48 (antibody, V domains shown)
VH: QVLLVQSGAEVRTPGASVKIFCKASGYSFTSYTIHWLRQAPAQGLEWMGNINPTSGYTEANQRFKDRLTLTADTSTNTAYMELSSLRSADTAMYYCARWGFKYDGEWSFDVWGAGTTVTVSS
VL: EIQMTQSPSSLSASPGDRVTITCRASQGISIWLSWYQQKPGNIPKVLINKASNLHIGVPSRFSGSGSGTDFTLTISSLEPEDAATYYCLQSQTYPLTFGGGTKLEIK
B16: the “% Inhibition Relative to Parent” value in experiment [1] was 47.3%. Besides, the “Binding Similarity score” value in experiment [2] turned out to be 70.2.
